In this experiment the test system is IL-8 secretion of HT-29 cells. Nature of the experiment: IL-8 secretion and viability of HT-29 cells pre-incubated with test compounds and challenged with Lyovec-complexed Poly I:C. The format is cell-based, Human.

B1: Lactoferrin: lactoferrin, control test compound (protein, UniProt P02788 20-710, looked up)
Lactotransferrin: GRRRSVQWCAVSQPEATKCFQWQRNMRKVRGPPVSCIKRDSPIQCIQAIAENRADAVTLDGGFIYEAGLAPYKLRPVAAEVYGTERQPRTHYYAVAVVKKGGSFQLNELQGLKSCHTGLRRTAGWNVPIGTLRPFLNWTGPPEPIEAAVARFFSASCVPGADKGQFPNLCRLCAGTGENKCAFSSQEPYFSYSGAFKCLRDGAGDVAFIRESTVFEDLSDEAERDEYELLCPDNTRKPVDKFKDCHLARVPSHAVVARSVNGKEDAIWNLLRQAQEKFGKDKSPKFQLFGSPSGQKDLLFKDSAIGFSRVPPRIDSGLYLGSGYFTAIQNLRKSEEEVAARRARVVWCAVGEQELRKCNQWSGLSEGSVTCSSASTTEDCIALVLKGEADAMSLDGGYVYTAGKCGLVPVLAENYKSQQSSDPDPNCVDRPVEGYLAVAVVRRSDTSLTWNSVKGKKSCHTAVDRTAGWNIPMGLLFNQTGSCKFDEYFSQSCAPGSDPRSNLCALCIGDEQGENKCVPNSNERYYGYTGAFRCLAENAGDVAFVKDVTVLQNTDGNNNEAWAKDLKLADFALLCLDGKRKPVTEARSCHLAMAPNHAVVSRMDKVERLKQVLLHQQAKFGRNGSDCPDKFCLFQSETKNLLFNDNTECLARLHGKTTYEKYLGPQYVAGITNLKKCSTSPLLEACEFLRK
Consider B1, for which the “Mean IL-8 secretion” value (0.1% + Poly I:C, Poly I:C alone 21799.28) worked out at 9201.69 pg/mL and the “Mean IL-8 secretion” value (0.1%, no Poly I:C, Medium 359.54) stood at 343.19 pg/mL.
